Substrate in data set [1]: NCCc1c[nH]cn1
Particulars: Saccharomyces cerevisiae.
Description: Activity at Saccharomyces cerevisiae recombinant Nce103p

Substrate in data set [2]: NCCc1c[nH]cn1
Particulars: Nakaseomyces glabratus.
Description: Activity at Candida glabrata recombinant carbonic anhydrase

Substrate in data set [3]: NCCc1c[nH]cn1
Description: Activity at archaea Methanobacterium thermoautotrophicum recombinant carbonic anhydrase
The note with it: Methanothermobacter thermautotrophicus.

B1: Carbonic anhydrase (Saccharomyces cerevisiae S288c), P53615 (protein)
chain: MSATESSSIFTLSHNSNLQDILAANAKWASQMNNIQPTLFPDHNAKGQSPHTLFIGCSDSRYNENCLGVLPGEVFTWKNVANICHSEDLTLKATLEFAIICLKVNKVIICGHTDCGGIKTCLTNQREALPKVNCSHLYKYLDDIDTMYHEESQNLIHLKTQREKSHYLSHCNVKRQFNRIIENPTVQTAVQNGELQVYGLLYNVEDGLLQTVSTYTKVTPK
The Km is the substrate concentration at which the rate is half of its maximum. Turning to B1, in data set [1], the Km turned out to be 9.5 mM.

B2: Carbonic anhydrase (Candida glabrata CBS 138), Q6FTL6 (protein)
chain: MTKDTIFTLTGKCALDNILDANRQWAQAMHRSQPQLFPTNGQGQDPHTLFIGCSDSRYNEDCLGVLPGEIFTLKTVANICHTDDHSLLATLEFAILNLKVNRIILCGHTDCGGIKTCLLGRESIKESCPHLYEHLDDIEDLVESHESELNQLDNICSKSKLMSHRNVERQLQRLLQIPVVQDALRNSNQDHEFNIFGLVYNVDSGLVDVVREVYGNQQK
Take B2: the Km in data set [2] was found to be 7.9 mM.

B3: Carbonic anhydrase (Methanobacterium thermoautotrophicum), Q50565 (protein)
chain: MRFVSMIIKDILRENQDFRFRDLSDLKHSPKLCIITCMDSRLIDLLERALGIGRGDAKVIKNAGNIVDDGVIRSAAVAIYALGVNEIIIVGHTDCGMARLDEDLIVSRMRELGVEEEVIENFSIDVLNPVGDEEENVIEGVKRLKSSPLIPESIGVHGLIIDINTGRLKPLYLDED
With B3, in data set [3], the Km came out at 1.7 mM.
